Here are results for eight substances from US20150023988A1.

What all share (assay): cell-based or functional assay
Assay [1] has as its target human voltage-gated sodium channel Nav1.4 (human) (UniProt P35499).
The target of assay [2] is human voltage-gated sodium channel Nav1.5 (human) (UniProt Q14524).
The target in assay [3] is human voltage-gated sodium channel Nav1.7 (human) (UniProt Q15858).
Assay [4] concerns the target human voltage-gated sodium channel Nav1.3 (human) (UniProt Q9NY46).
Assay [5] has as its target human voltage-gated sodium channel Nav1.4 (human) (UniProt P35499). This is another data set of the same source.
Assay [6] has as its target human voltage-gated sodium channel Nav1.5 (human) (UniProt Q14524). The source holds these as a separate data set.
The target of assay [7] is human voltage-gated sodium channel Nav1.7 (human) (UniProt Q15858). This is another data set of the same source.

Read-outs that look alike come from different tables or passages of the source. Where only a bound is given, the exact number is not on record here.

Sequence of human voltage-gated sodium channel Nav1.4 (human) (P35499 whole entry): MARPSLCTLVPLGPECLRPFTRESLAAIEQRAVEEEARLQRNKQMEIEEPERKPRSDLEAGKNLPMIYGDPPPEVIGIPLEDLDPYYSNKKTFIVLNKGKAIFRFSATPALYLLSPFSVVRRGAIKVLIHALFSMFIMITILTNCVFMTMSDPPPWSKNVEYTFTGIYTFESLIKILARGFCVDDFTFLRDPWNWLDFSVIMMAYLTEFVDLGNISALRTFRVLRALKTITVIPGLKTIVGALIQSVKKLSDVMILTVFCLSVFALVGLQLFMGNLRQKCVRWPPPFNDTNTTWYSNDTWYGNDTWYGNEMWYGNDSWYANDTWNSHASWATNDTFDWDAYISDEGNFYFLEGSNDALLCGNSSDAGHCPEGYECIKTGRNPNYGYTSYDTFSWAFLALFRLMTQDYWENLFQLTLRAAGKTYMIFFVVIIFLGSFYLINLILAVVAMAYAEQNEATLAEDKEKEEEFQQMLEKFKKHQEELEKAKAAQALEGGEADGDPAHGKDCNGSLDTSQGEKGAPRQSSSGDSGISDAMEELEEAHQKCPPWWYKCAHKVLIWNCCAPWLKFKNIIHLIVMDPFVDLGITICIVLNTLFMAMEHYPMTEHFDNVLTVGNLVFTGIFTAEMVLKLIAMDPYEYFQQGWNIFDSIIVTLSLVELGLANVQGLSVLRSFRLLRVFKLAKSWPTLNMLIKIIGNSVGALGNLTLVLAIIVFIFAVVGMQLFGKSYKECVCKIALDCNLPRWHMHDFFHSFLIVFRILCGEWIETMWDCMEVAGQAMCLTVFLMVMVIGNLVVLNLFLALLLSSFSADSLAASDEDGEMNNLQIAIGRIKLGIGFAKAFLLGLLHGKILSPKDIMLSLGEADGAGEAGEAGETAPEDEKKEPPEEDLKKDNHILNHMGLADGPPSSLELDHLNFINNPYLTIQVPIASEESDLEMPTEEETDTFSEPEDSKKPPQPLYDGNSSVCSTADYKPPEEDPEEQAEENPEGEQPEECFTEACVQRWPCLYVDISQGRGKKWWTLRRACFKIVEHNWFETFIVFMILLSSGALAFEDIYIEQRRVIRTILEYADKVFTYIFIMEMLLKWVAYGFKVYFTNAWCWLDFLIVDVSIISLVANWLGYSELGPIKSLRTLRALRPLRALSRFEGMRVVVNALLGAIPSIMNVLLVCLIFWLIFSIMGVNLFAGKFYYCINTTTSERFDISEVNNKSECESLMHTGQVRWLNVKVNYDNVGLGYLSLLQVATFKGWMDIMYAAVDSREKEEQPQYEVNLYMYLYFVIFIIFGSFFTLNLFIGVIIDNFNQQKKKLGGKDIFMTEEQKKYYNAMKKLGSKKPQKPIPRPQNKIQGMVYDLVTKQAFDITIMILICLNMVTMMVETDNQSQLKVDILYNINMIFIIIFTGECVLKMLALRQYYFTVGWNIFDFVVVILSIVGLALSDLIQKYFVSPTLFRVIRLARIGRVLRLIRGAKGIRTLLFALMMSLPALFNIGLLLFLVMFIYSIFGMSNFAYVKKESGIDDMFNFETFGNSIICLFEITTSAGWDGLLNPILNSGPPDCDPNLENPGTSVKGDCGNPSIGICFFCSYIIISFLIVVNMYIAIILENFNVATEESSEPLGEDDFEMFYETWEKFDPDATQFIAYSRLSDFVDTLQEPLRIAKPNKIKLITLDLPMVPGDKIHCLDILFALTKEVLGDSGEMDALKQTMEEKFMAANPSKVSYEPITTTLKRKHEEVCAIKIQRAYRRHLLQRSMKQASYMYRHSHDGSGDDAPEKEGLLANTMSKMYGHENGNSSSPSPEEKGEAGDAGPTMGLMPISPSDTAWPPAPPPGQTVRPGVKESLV
Sequence of human voltage-gated sodium channel Nav1.5 (human) (Q14524 whole entry): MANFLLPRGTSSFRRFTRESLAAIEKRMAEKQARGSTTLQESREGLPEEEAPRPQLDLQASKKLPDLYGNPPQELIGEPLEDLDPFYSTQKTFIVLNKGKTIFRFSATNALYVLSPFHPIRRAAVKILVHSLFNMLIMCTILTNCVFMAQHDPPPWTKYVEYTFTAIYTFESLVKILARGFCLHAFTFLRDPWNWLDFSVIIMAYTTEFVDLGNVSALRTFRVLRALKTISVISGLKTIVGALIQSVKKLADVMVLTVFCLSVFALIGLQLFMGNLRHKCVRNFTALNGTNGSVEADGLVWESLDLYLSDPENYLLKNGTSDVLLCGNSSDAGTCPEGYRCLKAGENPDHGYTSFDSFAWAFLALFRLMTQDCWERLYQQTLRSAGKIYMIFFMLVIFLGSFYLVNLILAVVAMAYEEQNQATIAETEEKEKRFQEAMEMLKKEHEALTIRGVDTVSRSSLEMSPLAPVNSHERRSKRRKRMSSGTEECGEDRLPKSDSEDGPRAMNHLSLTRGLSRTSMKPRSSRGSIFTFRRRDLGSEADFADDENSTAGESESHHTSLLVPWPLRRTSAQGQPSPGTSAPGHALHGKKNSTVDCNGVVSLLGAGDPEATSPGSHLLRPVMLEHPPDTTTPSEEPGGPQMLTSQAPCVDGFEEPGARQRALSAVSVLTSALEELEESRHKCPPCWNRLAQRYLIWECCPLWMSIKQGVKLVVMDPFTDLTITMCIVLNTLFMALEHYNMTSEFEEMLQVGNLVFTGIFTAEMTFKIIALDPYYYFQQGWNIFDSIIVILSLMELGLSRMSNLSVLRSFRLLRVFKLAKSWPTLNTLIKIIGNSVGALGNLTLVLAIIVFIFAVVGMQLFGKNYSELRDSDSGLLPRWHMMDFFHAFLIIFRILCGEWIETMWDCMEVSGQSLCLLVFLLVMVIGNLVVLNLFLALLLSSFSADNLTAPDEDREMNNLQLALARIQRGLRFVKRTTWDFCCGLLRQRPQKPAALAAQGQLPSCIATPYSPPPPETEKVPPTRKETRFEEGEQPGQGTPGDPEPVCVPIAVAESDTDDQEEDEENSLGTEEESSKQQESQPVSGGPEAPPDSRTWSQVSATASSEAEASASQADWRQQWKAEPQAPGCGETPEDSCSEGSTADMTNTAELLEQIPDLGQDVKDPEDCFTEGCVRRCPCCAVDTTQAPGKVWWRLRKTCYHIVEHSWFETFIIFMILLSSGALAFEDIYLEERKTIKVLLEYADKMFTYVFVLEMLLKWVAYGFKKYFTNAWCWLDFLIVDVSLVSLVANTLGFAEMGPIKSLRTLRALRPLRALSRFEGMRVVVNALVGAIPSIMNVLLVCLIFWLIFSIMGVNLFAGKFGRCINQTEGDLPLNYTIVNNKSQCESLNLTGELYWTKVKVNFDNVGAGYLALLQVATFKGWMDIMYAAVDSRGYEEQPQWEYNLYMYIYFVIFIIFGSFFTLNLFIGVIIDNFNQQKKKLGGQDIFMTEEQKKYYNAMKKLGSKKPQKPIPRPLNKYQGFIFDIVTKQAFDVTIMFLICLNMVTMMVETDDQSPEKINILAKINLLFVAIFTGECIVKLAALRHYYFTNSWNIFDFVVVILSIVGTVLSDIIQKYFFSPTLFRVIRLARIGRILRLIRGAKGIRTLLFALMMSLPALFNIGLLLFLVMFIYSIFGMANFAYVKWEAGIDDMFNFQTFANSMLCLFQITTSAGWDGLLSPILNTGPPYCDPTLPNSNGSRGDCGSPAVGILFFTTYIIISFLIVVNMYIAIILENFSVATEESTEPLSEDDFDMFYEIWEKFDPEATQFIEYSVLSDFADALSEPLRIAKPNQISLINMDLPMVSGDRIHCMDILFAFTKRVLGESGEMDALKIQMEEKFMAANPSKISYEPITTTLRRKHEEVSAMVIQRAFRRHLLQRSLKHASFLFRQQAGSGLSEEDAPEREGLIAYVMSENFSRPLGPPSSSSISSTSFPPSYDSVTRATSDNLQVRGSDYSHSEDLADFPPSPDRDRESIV

For “[Nle6; Pra14; Glu20; Tyr28]JzTx-V(1-29) (peptide)”, the PX hNav1.4 Tonic IC50 in assay [1] was 707 nM. The substance further came in with a PX hNav1.5 Tonic IC50 in assay [2] of 3690 nM. The same substance had a PX hNav1.7 Tonic IC50 in assay [3] of 1.76 nM.

In the case of “[Nle6;Pra11;Glu20;Trp29]JzTx-V(1-29) (peptide)”, the IC50 (IonWorks Quattro) in assay [3] came out at 26 nM.

As to “[Nle6; Pra11; Glu20]JzTx-V(1-29) (peptide)”, the PX hNav1.4 Tonic IC50 in assay [1] was determined as 4220 nM. Besides, in assay [2], the PX hNav1.5 Tonic IC50 amounted to 3550 nM. Also, the PX hNav1.7 Tonic IC50 in assay [3] worked out at 18.4 nM.

The substance “[Nle6; Pra14; Glu20]JzTx-V(1-29) (peptide)” gave a PX hNav1.4 Tonic IC50 in assay [1] of 1660 nM. In assay [2], this substance registered a PX hNav1.5 Tonic IC50 of 4570 nM. Further, the PX hNav1.7 Tonic IC50 in assay [3] amounted to 7.16 nM.

For “[Cit7;Glu20;Tyr28]JzTx-V(1-29) (peptide)”, the IC50 (IonWorks Quattro) in assay [4] is greater than 7000 nM; in assay [5], greater than 7000 nM; in assay [6], greater than 7000 nM; in assay [7], 5800 nM.

“[Nle6; AzK11; Glu20; Trp29]JzTx-V(1-29) (peptide)” gave a PX hNav1.7 Tonic IC50 in assay [3] of 435 nM.

As for “[Nle6; Pra11; Glu20; Tyr28]JzTx-V(1-29) (peptide)”, the PX hNav1.4 Tonic IC50 in assay [1] amounted to 825 nM. The same substance returned a PX hNav1.5 Tonic IC50 in assay [2] of 2460 nM. This substance yielded a PX hNav1.7 Tonic IC50 in assay [3] of 1.28 nM.

On to “[Nva7;Glu20;Tyr28]JzTx-V(1-29) (peptide)”, for which the IC50 (IonWorks Quattro) is greater than 7000 nM in assay [4], greater than 7000 nM in assay [5], greater than 7000 nM in assay [6] and 4500 nM in assay [7].
